Measured values as given in publication PMC8099091, “Heterogeneous multimeric structure of isocitrate lyase in complex with succinate and itaconate provides novel insights into its inhibitory mechanism” (PLoS ONE, 2021).

Molecular target: the molecule itself
Experiment: SEC-MALS; Superdex 200 Increase 10/300 GL, 20 mM Tris-HCl pH 8.0, 150 mM NaCl, 0.4 mL/min, 20°C; repeated under various conditions with the same results

B1: isocitrate lyase from Mycobacterium tuberculosis (tbICL) (enzyme)
chain: MSVVGTPKSAEQIQQEWDTNPRWKDVTRTYSAEDVVALQGSVVEEHTLARRGAEVLWEQLHDLEWVNALGALTGNMAVQQVRAGLKAIYLSGWQVAGDANLSGHTYPDQSLYPANSVPQVVRRINNALQRADQIAKIEGDTSVENWLAPIVADGEAGFGGALNVYELQKALIAAGVAGSHWEDQLASEKKCGHLGGKVLIPTQQHIRTLTSARLAADVADVPTVVIARTDAEAATLITSDVDERDQPFITGERTREGFYRTKNGIEPCIARAKAYAPFADLIWMETGTPDLEAARQFSEAVKAEYPDQMLAYNCSPSFNWKKHLDDATIAKFQKELAAMGFKFQFITLAGFHALNYSMFDLAYGYAQNQMSAYVELQEREFAAEERGYTATKHQREVGAGYFDRIATTVDPNSSTTALTGSTEEGQFH
notes: Tetramer in solution by SEC-MALS; dimer (subunits A and B) in the asymmetric unit, tetramer by twofold crystal symmetry; Theoretical monomer mass 47.08 kDa including the C-terminal His-tag; also called tbICL1; isocitrate lyase isoform 1; not shown: His-tag, C-terminal, kept
Question: For B1, which “stoichiometry N” value is on record?
Answer: 4
